Patent publication US10087225B2, “Formulation of MK2 inhibitor peptides” (MOERAE MATRIX, INC., priority 2015, dated 2018)

Assays:
Test in all cases: Kinase Profiling Assay
Type in all cases: biochemical
[1] = biological target: Snk(h) (Homo sapiens, UniProt Q9NYY3)
[2] = biological target: T1, TAO1(h) (Homo sapiens, UniProt Q7L7X3)
T1 sequence (Q7L7X3 1-1001): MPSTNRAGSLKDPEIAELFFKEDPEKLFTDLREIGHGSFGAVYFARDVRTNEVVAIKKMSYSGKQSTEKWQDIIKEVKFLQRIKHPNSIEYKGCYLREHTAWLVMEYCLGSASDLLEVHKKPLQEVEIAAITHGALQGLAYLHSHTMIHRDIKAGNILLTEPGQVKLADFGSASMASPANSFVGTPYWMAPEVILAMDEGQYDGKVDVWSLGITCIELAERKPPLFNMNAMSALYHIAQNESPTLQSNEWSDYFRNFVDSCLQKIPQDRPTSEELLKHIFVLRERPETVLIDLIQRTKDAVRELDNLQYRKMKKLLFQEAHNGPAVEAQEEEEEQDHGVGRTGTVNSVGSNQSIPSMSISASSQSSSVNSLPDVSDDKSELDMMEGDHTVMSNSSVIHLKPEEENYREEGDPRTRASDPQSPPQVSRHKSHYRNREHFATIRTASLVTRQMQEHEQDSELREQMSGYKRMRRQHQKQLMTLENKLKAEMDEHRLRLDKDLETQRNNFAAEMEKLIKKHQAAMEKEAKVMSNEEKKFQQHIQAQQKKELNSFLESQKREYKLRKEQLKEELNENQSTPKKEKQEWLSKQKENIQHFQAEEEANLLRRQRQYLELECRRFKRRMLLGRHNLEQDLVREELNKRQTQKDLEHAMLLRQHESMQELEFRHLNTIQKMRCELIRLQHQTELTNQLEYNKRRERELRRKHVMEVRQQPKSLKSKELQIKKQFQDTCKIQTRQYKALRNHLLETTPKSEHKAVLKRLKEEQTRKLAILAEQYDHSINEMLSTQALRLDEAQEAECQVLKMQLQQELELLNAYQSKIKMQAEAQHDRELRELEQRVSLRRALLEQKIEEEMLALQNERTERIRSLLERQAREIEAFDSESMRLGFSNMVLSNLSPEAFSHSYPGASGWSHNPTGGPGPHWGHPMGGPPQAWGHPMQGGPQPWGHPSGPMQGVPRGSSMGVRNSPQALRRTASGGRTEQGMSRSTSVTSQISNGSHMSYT

[3] = biological target: T2, MST2(h) (Homo sapiens, UniProt Q13188)
T2 sequence (Q13188 1-491): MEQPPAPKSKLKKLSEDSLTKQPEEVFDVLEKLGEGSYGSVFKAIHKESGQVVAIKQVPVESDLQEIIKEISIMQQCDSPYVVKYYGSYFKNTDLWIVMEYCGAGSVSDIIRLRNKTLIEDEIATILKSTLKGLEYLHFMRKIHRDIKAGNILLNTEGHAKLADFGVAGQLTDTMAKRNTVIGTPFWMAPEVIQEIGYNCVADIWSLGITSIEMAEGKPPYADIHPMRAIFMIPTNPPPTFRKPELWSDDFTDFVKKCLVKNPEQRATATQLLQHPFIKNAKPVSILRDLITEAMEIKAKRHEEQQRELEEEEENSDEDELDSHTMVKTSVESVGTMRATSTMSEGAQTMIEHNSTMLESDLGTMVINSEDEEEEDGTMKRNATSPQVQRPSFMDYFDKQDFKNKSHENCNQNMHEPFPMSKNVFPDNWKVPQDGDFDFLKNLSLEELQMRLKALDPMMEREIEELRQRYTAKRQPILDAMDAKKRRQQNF

[4] = biological target: CDK5/p35(h) (Homo sapiens, UniProt Q00535); conditions: 100 μM
[5] = biological target: CaMKIIβ(h) (Homo sapiens, UniProt Q13554); conditions: 100 μM
[6] = biological target: T3, NEK2(h) (Homo sapiens, UniProt P51955); conditions: 100 μM
T3 sequence (P51955 1-445): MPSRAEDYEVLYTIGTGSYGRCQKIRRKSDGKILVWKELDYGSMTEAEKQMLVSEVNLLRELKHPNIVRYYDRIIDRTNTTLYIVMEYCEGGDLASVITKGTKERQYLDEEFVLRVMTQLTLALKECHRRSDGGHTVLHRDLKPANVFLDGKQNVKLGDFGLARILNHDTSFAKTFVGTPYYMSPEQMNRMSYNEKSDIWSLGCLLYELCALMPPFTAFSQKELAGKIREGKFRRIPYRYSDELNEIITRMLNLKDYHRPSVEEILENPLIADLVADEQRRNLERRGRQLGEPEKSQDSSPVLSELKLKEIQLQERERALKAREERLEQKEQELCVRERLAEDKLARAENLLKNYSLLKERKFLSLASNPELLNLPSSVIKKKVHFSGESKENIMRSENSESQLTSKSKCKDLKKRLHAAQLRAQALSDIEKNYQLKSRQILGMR

[7] = biological target: Pyk2(h) (Homo sapiens, UniProt Q14289); conditions: 100 μM
[8] = biological target: AMPKa2(h) (Homo sapiens, UniProt P54646); conditions: 100 μM
AMPKa2(h), sequence (P54646 whole entry): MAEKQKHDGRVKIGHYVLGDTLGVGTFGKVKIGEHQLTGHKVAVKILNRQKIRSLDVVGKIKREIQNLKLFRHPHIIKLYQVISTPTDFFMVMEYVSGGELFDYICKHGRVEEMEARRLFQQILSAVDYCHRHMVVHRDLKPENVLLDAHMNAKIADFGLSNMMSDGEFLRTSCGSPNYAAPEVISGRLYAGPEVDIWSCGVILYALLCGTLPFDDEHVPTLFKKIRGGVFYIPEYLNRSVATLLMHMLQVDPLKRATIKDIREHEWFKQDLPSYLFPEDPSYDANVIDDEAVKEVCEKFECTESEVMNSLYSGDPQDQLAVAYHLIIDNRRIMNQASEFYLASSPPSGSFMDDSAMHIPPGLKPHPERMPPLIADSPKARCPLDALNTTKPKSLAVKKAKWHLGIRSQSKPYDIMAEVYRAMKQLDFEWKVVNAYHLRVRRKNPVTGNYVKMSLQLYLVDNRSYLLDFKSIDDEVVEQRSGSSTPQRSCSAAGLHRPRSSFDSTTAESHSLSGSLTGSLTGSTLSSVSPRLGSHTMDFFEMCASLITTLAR
AMPKa2(h), sequence (Q9Y478 whole entry partner): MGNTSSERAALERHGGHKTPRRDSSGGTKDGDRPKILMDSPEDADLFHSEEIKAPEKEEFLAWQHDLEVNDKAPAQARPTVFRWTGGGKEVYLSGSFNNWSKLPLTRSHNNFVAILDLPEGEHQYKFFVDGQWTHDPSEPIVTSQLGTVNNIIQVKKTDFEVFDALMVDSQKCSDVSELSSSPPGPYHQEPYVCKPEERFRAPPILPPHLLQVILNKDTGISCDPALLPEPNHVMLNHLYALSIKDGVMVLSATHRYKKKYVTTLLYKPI
AMPKa2(h), sequence (P54619 whole entry partner): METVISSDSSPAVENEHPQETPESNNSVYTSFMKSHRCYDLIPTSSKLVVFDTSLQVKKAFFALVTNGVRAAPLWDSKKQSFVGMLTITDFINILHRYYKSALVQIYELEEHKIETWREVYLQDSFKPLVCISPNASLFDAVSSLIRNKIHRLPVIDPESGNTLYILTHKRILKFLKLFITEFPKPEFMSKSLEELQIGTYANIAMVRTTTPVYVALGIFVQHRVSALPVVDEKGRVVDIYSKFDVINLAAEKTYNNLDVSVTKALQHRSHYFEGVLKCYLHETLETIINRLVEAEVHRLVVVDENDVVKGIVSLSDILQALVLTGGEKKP

CaMKIIβ(h), sequence (Q13554 whole entry): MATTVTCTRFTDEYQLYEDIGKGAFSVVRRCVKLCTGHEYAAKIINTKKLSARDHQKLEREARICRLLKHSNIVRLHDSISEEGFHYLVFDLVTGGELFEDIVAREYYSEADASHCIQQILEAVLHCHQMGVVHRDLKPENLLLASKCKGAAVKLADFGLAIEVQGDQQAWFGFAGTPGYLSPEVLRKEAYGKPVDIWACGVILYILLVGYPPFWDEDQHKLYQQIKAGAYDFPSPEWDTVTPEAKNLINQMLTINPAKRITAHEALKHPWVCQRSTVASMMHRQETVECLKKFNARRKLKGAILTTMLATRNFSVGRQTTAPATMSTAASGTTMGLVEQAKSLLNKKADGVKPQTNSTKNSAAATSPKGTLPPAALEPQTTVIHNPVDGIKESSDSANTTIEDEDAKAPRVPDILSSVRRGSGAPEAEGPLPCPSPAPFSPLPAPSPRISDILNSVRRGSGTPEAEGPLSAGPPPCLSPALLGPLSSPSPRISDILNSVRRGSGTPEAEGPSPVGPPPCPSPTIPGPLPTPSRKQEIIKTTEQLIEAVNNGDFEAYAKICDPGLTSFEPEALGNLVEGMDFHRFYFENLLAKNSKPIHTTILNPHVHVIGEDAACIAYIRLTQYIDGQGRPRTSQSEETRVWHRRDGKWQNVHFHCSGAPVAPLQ
CDK5/p35(h), sequence (Q00535 whole entry): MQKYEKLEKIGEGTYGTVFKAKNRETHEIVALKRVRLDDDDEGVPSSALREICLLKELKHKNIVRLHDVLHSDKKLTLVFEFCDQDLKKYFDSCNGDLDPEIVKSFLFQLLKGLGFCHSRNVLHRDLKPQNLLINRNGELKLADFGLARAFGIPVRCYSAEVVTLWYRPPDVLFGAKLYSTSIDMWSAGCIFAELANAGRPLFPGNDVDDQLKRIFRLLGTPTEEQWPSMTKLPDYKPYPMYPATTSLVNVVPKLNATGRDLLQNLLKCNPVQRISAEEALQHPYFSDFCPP
CDK5/p35(h), sequence (Q15078 whole entry partner): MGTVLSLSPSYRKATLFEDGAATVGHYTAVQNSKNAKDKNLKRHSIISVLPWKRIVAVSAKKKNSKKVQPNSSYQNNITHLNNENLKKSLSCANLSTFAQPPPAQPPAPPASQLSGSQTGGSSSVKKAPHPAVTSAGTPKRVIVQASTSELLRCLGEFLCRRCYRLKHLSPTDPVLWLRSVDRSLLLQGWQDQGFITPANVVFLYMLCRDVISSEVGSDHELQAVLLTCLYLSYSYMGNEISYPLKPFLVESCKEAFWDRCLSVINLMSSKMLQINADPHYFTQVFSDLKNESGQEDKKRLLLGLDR
Pyk2(h), sequence (Q14289 whole entry): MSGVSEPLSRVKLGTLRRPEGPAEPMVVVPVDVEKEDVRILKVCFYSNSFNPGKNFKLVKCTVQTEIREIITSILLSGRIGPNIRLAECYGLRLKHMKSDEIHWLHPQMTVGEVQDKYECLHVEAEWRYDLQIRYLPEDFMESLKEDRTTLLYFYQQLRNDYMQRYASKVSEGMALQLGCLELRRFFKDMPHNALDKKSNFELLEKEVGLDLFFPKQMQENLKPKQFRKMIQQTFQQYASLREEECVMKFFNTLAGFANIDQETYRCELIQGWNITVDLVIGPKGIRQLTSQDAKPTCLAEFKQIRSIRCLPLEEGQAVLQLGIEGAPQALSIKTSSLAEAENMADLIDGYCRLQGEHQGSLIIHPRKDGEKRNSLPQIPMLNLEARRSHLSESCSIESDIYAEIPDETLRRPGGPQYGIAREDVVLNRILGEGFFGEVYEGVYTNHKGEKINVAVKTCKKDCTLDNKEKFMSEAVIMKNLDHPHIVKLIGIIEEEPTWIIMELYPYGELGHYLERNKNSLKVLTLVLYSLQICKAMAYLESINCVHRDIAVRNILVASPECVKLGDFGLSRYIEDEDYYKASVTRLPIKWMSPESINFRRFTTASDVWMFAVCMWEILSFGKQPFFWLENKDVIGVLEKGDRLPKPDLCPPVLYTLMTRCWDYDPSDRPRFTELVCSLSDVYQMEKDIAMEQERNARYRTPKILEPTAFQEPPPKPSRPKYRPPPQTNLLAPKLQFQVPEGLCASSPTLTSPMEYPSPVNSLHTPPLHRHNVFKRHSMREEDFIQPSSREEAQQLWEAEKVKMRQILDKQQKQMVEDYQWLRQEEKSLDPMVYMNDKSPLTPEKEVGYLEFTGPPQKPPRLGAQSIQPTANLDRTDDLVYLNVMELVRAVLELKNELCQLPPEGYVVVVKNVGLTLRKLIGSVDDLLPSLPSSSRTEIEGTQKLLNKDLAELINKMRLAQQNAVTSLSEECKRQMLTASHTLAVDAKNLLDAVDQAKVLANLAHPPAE
Snk(h), sequence (Q9NYY3 whole entry): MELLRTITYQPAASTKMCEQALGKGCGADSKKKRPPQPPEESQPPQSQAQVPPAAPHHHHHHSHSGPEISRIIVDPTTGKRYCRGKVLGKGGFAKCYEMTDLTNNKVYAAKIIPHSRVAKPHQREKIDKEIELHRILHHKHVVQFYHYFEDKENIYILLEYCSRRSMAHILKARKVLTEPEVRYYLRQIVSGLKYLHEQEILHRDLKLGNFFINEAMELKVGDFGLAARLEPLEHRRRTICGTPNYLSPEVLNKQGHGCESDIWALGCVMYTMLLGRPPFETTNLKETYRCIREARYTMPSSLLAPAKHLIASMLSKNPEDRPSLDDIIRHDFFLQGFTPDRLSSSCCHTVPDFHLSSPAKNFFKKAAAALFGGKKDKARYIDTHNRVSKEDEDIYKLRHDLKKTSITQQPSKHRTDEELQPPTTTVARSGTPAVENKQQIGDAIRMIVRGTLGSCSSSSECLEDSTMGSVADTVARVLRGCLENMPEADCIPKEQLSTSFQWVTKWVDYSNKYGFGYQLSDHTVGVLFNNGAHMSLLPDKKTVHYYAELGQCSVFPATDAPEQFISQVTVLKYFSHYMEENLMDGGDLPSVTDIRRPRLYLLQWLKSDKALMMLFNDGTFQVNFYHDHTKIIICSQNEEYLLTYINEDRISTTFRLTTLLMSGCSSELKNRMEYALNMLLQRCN

| Substance | activity at 100 µM [1] | activity at 100 µM [2] | activity at 100 µM [3] | % activity [4] | % activity [5] | % activity [6] | % activity [7] | % activity [8] | % activity ([1]; 100 μM) | % activity ([2]; 100 μM) | % activity ([3]; 100 μM) |
| --- | --- | --- | --- | --- | --- | --- | --- | --- | --- | --- | --- |
| H-YARAAARQARAKALARQLGVAA-OH [MMI-0100] | 94% | 99% | 98% | – | – | – | – | – | – | – | – |
| YARAAARQARAKALNRQLGVA (Mammalian) [MMI-0200] | – | – | – | 92% | 53% | 97% | 127% | 88% | – | – | – |
| HRRIKAWLKKIKALARQLGVAA (Mammalian) [MMI-0500] | – | – | – | 59% | 3% | 0% | 46% | 9% | 122% | 24% | 2% |
